According to US20150133524:

Target: PDH E1α subunit (pyruvate dehydrogenase E1 alpha subunit, 41 kDa) (UniProt P35486)
Sequence (P35486 30-390): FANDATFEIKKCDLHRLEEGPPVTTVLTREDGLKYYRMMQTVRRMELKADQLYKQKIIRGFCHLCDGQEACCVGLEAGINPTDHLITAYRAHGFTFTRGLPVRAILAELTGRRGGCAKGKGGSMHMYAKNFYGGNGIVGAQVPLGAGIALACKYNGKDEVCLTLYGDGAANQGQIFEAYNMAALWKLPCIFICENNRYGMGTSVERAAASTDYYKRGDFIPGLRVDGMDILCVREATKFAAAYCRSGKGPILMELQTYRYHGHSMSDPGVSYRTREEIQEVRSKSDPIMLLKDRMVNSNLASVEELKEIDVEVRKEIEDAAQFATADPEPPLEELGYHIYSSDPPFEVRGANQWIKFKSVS

Chain of human PDK1 (pyruvate dehydrogenase kinase, isoenzyme 1) (chain, as listed by the source): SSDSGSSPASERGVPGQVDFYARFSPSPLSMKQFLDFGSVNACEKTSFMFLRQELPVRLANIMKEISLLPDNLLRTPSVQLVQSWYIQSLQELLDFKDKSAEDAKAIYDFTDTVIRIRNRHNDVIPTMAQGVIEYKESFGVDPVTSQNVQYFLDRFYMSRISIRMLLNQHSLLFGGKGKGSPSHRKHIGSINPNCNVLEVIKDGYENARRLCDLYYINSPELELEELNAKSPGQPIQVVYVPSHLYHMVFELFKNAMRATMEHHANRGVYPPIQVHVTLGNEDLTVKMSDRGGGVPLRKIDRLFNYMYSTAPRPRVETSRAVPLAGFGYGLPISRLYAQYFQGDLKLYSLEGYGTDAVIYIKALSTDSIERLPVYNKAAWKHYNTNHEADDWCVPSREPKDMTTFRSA

## human PDK1 (pyruvate dehydrogenase kinase, isoenzyme 1)
  PDH E1α subunit phosphorylation (immunoblot after two-dimensional gel electrophoresis of lysates of Hif1a-/- MEFs with forced PDK1 expression against empty vector): This overexpression resulted in increased PDH E1α subunit phosphorylation
